Data as given in publication PMC8152229.

How the values were obtained:
[1] = viscosity (falling ball micro viscometer); Tpm alone at 1.0 or 2.0 mg/mL; 30 mM Hepes-Na pH 7.3, 100 mM NaCl, 2 mM DTT; 20 °C; excess viscosity over buffer (1.0412 mPa∙s) as measure of head-to-tail interaction between Tpm dimers; conditions: other: viscosity (falling ball micro viscometer)
[2] = target: F-actin from rabbit skeletal muscle, stabilised by phalloidin (rabbit) (UniProt P68135); experiment: temperature dependence of light scattering; 20 uM F-actin stabilized by 20 uM phalloidin and 10 uM Tpm; 30 mM Hepes-Na pH 7.3, 100 mM NaCl, 2 mM DTT; heating 1 °C/min; light scattering at 90 degrees, 350 nm; T_diss = temperature of 50% decrease
[3] = target: F-actin from rabbit skeletal muscle, stabilised by phalloidin (rabbit) (UniProt P68135); experiment: co-sedimentation; 10 uM phalloidin-stabilized F-actin mixed with increasing Tpm (0 to 5.5-6 uM; up to almost 40 uM for Tpm1.12); 30 mM Hepes-Na pH 7.3, 200 mM NaCl; 40 min at 25 °C; 100,000 x g for 40 min; SDS-PAGE of pellet and supernatant; K50% = Tpm concentration at which actin is half-saturated
P09493 = experiment: viscosity (falling ball micro viscometer); Tpm alone at 1.0 or 2.0 mg/mL; 30 mM Hepes-Na pH 7.3, 100 mM NaCl, 2 mM DTT; 20 °C; excess viscosity over buffer (1.0412 mPa∙s) as measure of head-to-tail interaction between Tpm dimers; conditions: other: viscosity (falling ball micro viscometer)

Sequence of Tropomyosin isoform Tpm1.7 with Ala-Ser N-terminal extension (chain, as listed by the source): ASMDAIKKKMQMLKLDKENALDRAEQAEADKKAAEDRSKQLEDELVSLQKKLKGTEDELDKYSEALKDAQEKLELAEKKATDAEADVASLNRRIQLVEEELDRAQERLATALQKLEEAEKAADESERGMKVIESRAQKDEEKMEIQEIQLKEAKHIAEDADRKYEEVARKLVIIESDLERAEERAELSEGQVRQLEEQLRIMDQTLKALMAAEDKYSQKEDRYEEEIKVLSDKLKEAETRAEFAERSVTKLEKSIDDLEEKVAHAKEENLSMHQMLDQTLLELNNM
Sequence of Tropomyosin isoform Tpm1.12 (chain, as listed by the source): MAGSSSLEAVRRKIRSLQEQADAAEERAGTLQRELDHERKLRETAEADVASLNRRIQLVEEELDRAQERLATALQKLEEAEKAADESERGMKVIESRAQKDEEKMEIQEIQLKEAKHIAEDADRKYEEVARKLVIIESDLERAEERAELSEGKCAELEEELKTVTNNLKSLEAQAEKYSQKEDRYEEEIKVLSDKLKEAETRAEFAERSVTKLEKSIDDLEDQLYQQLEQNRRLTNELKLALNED

T diss [2] [°C] | K50% [3] [µM] | Substance | excess viscosity at 1 mg/mL [1] [mPa∙s] | excess viscosity at 2 mg/mL [1] [mPa∙s] | excess viscosity at 1 mg/mL (P09493) [mPa∙s] | excess viscosity at 2 mg/mL (P09493) [mPa∙s]
 |  | Tropomyosin isoform Tpm1.5 with Ala-Ser N-terminal extension | 0.179 | 0.653 |  | 
48.9 | 1.11 | Tropomyosin isoform Tpm1.5 with Ala-Ser N-terminal extension (natural protein) |  |  |  | 
 |  | Tropomyosin isoform Tpm1.6 with Ala-Ser N-terminal extension | 0.474 | 1.34 |  | 
41.4 | 0.45 | Tropomyosin isoform Tpm1.6 with Ala-Ser N-terminal extension (natural protein) |  |  |  | 
 |  | Tropomyosin isoform Tpm1.7 with Ala-Ser N-terminal extension |  |  | 1.03 | 3.58
 |  | Tropomyosin isoform Tpm1.12 |  |  | 0.026 | 0.066
